The values that follow come from patent US20170022273A1 (SORRENTO THERAPEUTICS, published 2017).

As usually defined, the Kd is the free concentration of one partner at which half of the binding sites on the other are occupied at equilibrium, for simple one-to-one binding. As usually defined, the koff is the first-order rate constant of dissociation. The term kon denotes a measure of how fast the partners come together.

Test [1] concerns the target T1, Recombinant human LAG3/His (human, UniProt P18627 23-450).
T1 construct: Analyte in the Biacore assay, serially diluted in HBS-EP; not shown: His tag
T1 sequence (looked up): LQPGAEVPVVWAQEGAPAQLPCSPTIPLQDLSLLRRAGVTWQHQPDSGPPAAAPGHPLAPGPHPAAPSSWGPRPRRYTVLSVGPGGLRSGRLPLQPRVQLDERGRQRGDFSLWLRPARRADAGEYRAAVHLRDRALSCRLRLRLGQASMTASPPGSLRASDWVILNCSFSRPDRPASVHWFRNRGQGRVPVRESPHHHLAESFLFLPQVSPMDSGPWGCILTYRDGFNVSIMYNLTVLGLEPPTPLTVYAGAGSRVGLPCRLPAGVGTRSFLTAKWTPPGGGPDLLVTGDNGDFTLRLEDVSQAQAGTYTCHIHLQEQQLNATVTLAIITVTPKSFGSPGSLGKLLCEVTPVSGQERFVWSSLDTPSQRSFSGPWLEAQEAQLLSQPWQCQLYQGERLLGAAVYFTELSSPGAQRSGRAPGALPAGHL
Briefly: Biacore SPR, antibody captured on anti-human Fc CM5 chip, LAG3/His as analyte, 1:1 Langmuir fit. As for the experimental part:
The binding affinity of antibody L3C5 for human LAG3 was also tested using a BiaCore assay. […] Biacore was used to measure the affinity of LAG3 antibody L3C5. Anti-human Fc antibody (GE, BR-1008-39) was immobilized on CM5 sensor chip to approximately 5000 RU using standard NHS/EDC coupling methodology. Antibody (approximately 2 ug/ml) were captured for 60 s at a flow rate 10 uL/min. Recombinant human LAG3/His was serially diluted in running buffer (HBS-EP). All measurements were conducted with a flow rate of 30 μL/min Surfaces were regenerated with 3M MgCl2 (from human antibody kit) for 60 s. A 1:1 (Langmuir) binding model was used to fit the data.
(In general: In SPR one partner is held on a chip, and binding of the other changes the refractive index at the surface.)

In test [2] the target is T2, recombinant human LAG3/Fc (human, UniProt P18627 23-450).
T2 construct: Coated on the ELISA plate at 2 ug/mL; not shown: Fc part of the LAG3/Fc fusion
T2 sequence (looked up): T1 sequence (looked up)
The test is described as follows: ELISA, plate coated with 2 ug/mL recombinant human LAG3/Fc, IgG about 5ug/ml. The protocol: (§1) An analysis of the cross-reactivity of various LAG3 antibodies to recombinant mouse LAG3 and human LAG3 was also performed. A Maxisorb ELISA plate was coated with 2 ug/mL recombinant human, and mouse LAG3/Fc (blank: PBS). Incubated overnight at 4° C. The plate was washed 3 times with PBS-Tween (PBST), then blocked with Casein blocking buffer for 1 hour at room temperature. Next, IgGs diluted in casein (about 5ug/ml) were added, and incubated 30 min with shaking. The plate was washed 3 times with PBST. Horseradish peroxidase (HRP)-conjugated goat anti-human Lambda HRP (1:1000 in casein) was added, then 3,3′,5,5′-Tetramethylbenzidine (TMB) was added as substrate and developed 30 min 2M H2SO4 was used to stop the reaction and the OD was read at 450 nm Anti-AIP antibody C7 was used as a control antibody.

In test [3] the target is T3, recombinant mouse LAG3/Fc (mouse, UniProt Q61790 24-442).
T3 construct: Coated on the ELISA plate at 2 ug/mL; not shown: Fc part of the LAG3/Fc fusion
T3 sequence (looked up): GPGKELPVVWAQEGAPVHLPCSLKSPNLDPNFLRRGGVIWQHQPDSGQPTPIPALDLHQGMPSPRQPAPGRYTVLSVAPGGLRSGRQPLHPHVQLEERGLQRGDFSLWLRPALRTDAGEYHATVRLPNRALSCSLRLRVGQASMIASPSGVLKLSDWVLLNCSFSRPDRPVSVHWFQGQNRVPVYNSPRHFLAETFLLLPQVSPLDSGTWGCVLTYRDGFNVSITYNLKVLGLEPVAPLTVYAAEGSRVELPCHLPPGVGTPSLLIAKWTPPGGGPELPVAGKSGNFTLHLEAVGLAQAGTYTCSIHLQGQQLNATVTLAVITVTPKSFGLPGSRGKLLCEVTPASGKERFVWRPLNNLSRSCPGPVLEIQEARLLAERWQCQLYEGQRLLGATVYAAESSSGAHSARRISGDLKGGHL
Briefly: ELISA, plate coated with 2 ug/mL recombinant mouse LAG3/Fc, anti-human Lambda HRP detection. As for the experimental part:
as §1
In general terms: An ELISA detects its analyte on a solid surface through an enzyme-linked reagent.

Positions count from the first letter of the chain named.

B1: L3C5 (antibody, V domains shown)
VH: QVQLVQSGSELKKPGASVKVSCKASGYTFTNYYMHWVRQAPGQGLEWMGIINPSGGATNYAQKFQGRVTMTRDTSTSTVYMELSSLRSEDTAVYYCARDSGYDLGYGMDVWGQGTLVTVSS
VL: QSVLTQPASVSGSPGQSITISCTGTSSDVGGYNYVSWYQQHPGKAPKLMIYDVSNRPSGASNRFSGSKSGNTASLTISGLQAEDEADYYCSSYTNRNTLLFGGGTKLTVL
notes: Captured on an anti-human Fc antibody chip in the Biacore assay, so a whole antibody with a human Fc; also called LAG3 antibody L3C5; 13
Consider B1, for which, in test [1], the Ka is 6.6e+06 M⁻¹, the Kd was found to be 152 nM, the koff was determined as 0.0717 s⁻¹ and the kon was 473000 M⁻¹ s⁻¹.

B2: L33H11 (antibody, V domains shown)
VH: QVQLVQSGAEVKKPGASVKVSCKASGYTFTSYYMHWVRQAPGQGLEWMGIINPSAGSTSYAQKFQGRVTMTRDTSTSTVYMELSSLRSEDTAVYYCARELMATGGFDYWGQGTLVTVSS
VL: B1 VL with Q1L, S2P, S54T, A60V, N95S, R96S, K106Q
notes: Tested as a fully human IgG with a lambda light chain; also called anti-hLAG3 antibody L33H11
For the molecule B2, the binding result in test [2] is recorded as “binds”; in test [3] it was “no binding (tested: about 5ug/ml)”.

B3: L32D10 (antibody, V domains shown)
VH: B2 VH
VL: B1 VL with A8P, V10A, I18V, N33D, P42Q, A60V, N95S, R96S, N97T, L100V
notes: Tested as a fully human IgG with a lambda light chain; also called anti-hLAG3 antibody L32D10
Take B3: the binding result is “binds” in test [2] and “no binding (tested: about 5ug/ml)” in test [3].

B4: L35G6 (antibody, V domains shown)
VH: B2 VH
VL: QAGLTQPASVSGSPGQSITISCTGSSSDVGGYSYVSWYQKHPGKAPKLMIYDVTNRPSGVSNRFSGSKSGNTASLTISGLQAEDEADYYCSTYTRSNTLVFGPGTKVTVL
notes: Tested as a fully human IgG with a lambda light chain (detected with anti-human Lambda HRP); also called anti-hLAG3 antibody L35G6
As to B4, the results for the binding result in test [2] and in test [3] were “binds” and “no binding (tested: about 5ug/ml)”, respectively.

B5: L35D4 (antibody, V domains shown)
VH: B2 VH
VL: QSVLTQPPSASGSPGQSVTISCTGTSSDVGGYNYVSWYQQYPGKAPRLMIFEVTERASGVPDRFSGSKSGNTASLTVSGLQTEDEAVYFCSSYSGSNNPGAMFGGGTKLTVL
notes: Tested as a fully human IgG with a lambda light chain; also called anti-hLAG3 antibody L35D4
As for B5, the binding result in test [2] was “binds”; in test [3], “no binding (tested: about 5ug/ml)”.

B6: L32A9 (antibody, V domains shown)
VH: B2 VH
VL: QSVVTQPPSVSAAPGQKVTISCSGSSSNIGNNYVSWYQQLPGTAPKLLIYDNNKRHSGIPDRFSGSTSDTSATLGITRLQTGDEADYYCGTWDSSLSAYVFGTGTKVTVL
notes: Tested as a fully human IgG with a lambda light chain; also called anti-hLAG3 antibody L32A9
For B6, the figures for the binding result in test [2] and in test [3] were “binds” and “no binding (tested: about 5ug/ml)”, respectively.

B7: L32A4 (antibody, V domains shown)
VH: B2 VH
VL: QSVLTQPASVSGSPGQSITISCTGTSSDIGAYNFVSWYQQHPGKAPKLMIYGVSNRPSGVSSRFSGSKSGSTASLTISGLQAEDEADYYCSSYTTSGSAVFGTGTKLTVL
notes: Tested as a fully human IgG with a lambda light chain; also called anti-hLAG3 antibody L32A4
Regarding B7, the binding result is listed as “binds” in test [2] and “no binding (tested: about 5ug/ml)” in test [3].
